Source: PMC3737725 (Development (Cambridge, England), 2013)

Target: T1, murine MBP::KSR1 (mouse, UniProt Q61097 1-873)
T1 sequence (looked up): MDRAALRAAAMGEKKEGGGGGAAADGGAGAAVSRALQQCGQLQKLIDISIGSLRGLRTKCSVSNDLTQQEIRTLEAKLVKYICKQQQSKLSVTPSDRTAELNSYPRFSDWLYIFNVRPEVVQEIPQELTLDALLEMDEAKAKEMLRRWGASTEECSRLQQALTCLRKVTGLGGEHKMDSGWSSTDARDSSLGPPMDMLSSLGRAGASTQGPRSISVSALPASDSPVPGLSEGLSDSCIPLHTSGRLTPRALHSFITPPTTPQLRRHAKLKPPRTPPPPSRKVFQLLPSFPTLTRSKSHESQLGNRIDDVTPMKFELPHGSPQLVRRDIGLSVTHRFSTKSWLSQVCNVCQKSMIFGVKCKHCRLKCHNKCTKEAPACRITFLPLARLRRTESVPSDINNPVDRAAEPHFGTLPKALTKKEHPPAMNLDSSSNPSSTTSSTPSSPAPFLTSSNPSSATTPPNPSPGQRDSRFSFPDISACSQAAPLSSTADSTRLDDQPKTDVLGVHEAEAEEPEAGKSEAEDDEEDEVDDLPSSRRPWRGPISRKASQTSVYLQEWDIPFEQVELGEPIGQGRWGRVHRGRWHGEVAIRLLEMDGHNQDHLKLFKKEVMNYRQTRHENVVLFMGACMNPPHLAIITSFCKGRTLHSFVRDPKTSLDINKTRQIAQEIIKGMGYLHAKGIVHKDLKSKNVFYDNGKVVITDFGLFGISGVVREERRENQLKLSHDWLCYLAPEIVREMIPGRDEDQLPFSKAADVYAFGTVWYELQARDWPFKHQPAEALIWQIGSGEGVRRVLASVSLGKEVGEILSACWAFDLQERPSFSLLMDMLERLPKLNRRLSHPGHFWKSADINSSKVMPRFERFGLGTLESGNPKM
Test: pull-down

binding result: binds
B1: GST::NDK-1::His6 (natural protein, C. elegans, UniProt Q93576 1-153, looked up)
chain: MSNTERTFIAIKPDGVHRGLVGKIIARFEERGYKLVALKQMTASKAHLEVHYQDLKDKPFFPSLIEYMSSGPVVAMVWQGLDVVKQGRSMLGATNPLASAPGTIRGDFCIQTGRNICHGSDAVDSANREIAHWFKQEEINDYASPFINSWVYE
